Assay results published in US20030036169A1.

B1: Mint 2 (protein)
chain: MAHRKRQSTASSMLDHRARPGPIPHDQEPENEDTELPLESYVPTGLELGTLRPDSPTPEEQECHNHSPDGDSSSDYVNNTSEEEDYDEGLPEEEEGVTYYIRYCPEDDSYLEGMDCNGEEYLAHGAHPVDTDECQEAVEDWTDSVGPHTHSHGAENSQEYPDSHLPIPEDDPTVLEVHDQEEDGHYCPSKESYQDYYPPETNGNTGGASPYRMRRGDGDLEEQEEDIDQIVAEIKMSLSMTSITSASEASPEHMPELDPGDSTEACSPSDTGRGPSRQEARPKSLNLPPEVKHSGDPQRGLKTKTRTPEERPKWPQEQVCNGLEQPRKQQRSDLNGPTDNNNIPETKKVASFPSFVAVPGPCEPEDLIDGIIFAANYLGSTQLLSERNPSKNIRMMQAQEAVSRVKRMQKAAKIKKKANSEGDAQTLTEVDLFISTQRIKVLNADTQETMMDHALRTISYIADIGNIVVLMARRRMPRSASQDCIETTPGAQEGKKQYKMICHVFESEDAQLIAQSIGQAFSVAYQEFLRANGINPEDLSQKEYSDIINTQEMYNDDLIHFSNSENCKELQLEKHKGEILGVVVVESGWGSILPTVILANMMNGGPAARSGKLSIGDQIMSINGTSLVGLPLATCQGIIKGLKNQTQVKLNIVSCPPVTTVLIKRPDLKYQLGFSVQNGIICSLMRGGIAERGGVRVGHRIIEINGQSVVATAHEKIVQALSNSVGEIHMKTMPAAMFRLLTGQETPLYI
B2: Mint 3 (protein, rat, UniProt O70248 1-569, looked up)
chain: MEFLPEPQHPPGPPTMDLEEPKGPEVPSEDHPSNTQWALGPRGPDTLSEMELDTSSVRALVQQLEALPSDLGGQFPDGAPCPLHIATGQGLATQENLDAGGLLSAEAGGDNLLGLLRCEASLPAQSVPPDPAQAAPRLLQPPEDPGGDPGWMEGTEPADNRSSSSSPELWLETAPLVTHRDPPVGTQSQETLASCPAVSEVPGPCGQEELMDGVLFGAKYLGSTQLLSERNPPPSTRMGQAQEAMDRVKAPEGETQPMTEVDIFISTKRVKVLAADSQDALMDHALQTISYIADIGPVLVLMARRRLAKRTTSQDRQRQLYKMLCHVFHSEDAQLIAQAIGQAFSIAYSQFLQENRIDPSQVGMQPSASASHPHNGDLDHFCNSQNCREVCIQKRPGEGLGVALVESGWGSLLPTAVIANLLHGGPAERCGALSIGDRVTAINGTSLVGLSLAACQAAVREVRRHSSVTLSIIHCPPVTTAVIHRPHVREQLGFCVENGIICSLLRGSAAERGGVRVGHRIIEVNGQSVVAMPHARIIQLLTETREIHIKTMPAATYRLLTGQEQPVYL
B3: Mint 1 (protein)
chain: MNHLEGSAEVEVADEAPGGEVNESVEADLEHPEVEEEQQPSPPPPAGHAPEDHRAHPAPPPPPPPQEEEEERGECLARSASTESGFHNHTDTAEGDVLAAARDGYEAERAQDADDESAYAVQYRPEAEEYTEQAEAEHAEAAQRRALPNHLHFHSLEHEEAMNAAYSGYVYTHRLFHRAEDEPYAEPYADYGGLQEHVYEEIGDAPELEARDGLRLYERERDEAAAYRQEALGARLHHYDERSDGESDSPEKEAEFAPYPRMDSYEQEEDIDQIVAEVKQSMSSQSLDKAAEDMPEAEQDLERAPTPGGGHPDSPGLPAPAGQQQRVVGTPGGSEVGQRYSKEKRDAISLAIKDIKEAIEEVKTRTIRSPYTPDEPKEPIWVMRQDISPTRDCDDQRPVDGDSPSPGSSSPLGAESSITPLHPGDPTEASTNKESRKSLASFPTYVEVPGPCDPEDLIDGIIFAANYLGSTQLLSDKTPSKNVRMMQAQEAVSRIKTAQKLAKSRKKAPEGESQPMTEVDLFISTQRIKVLNADTQEPMMDHPLRTISYIADIGNIVVLMARRRMPRSNSQENVEASHPSQDAKRQYKMICHVFESEDAQLIAQSIGQAFSVAYQEFLRANGINPEDLSQKEYSDLLNTQDMYNDDLIHFSKSENCKDVFIEKQKGEILGVVIVESGWGSILPTVIIANMMHGGPAEKSGKLNIGDQIMSINGTSLVGLPLSTCQSIIKGLKNQSRVKLNIVRCPPVTTVLIRRPDLRYQLGFSVQNGIICSLMRGGIAERGGVRVGHRIIEINGQSVVATPHEKIVHILSNAVGEIHMKTMPAAMYRLLTAQEQPVYI

target: APP695 (human) (UniProt P05067); assay: cell-based or functional assay

steady-state levels of transfected APP695 in HEK293 cells (quantitative immunoblot), < 3 fold:
B1
B2
B3
